PMC4865801

cells with resurgent currents (whole-cell patch clamp, 100 µM β4-peptide in the pipette, 50 nM ATX-II in the bath) (out of 15 cells) (hNav1.7/ΔL955 (human)): 1
share of cells with resurgent currents (whole-cell patch clamp, 100 µM β4-peptide in the pipette, 50 nM ATX-II in the bath) (hNav1.7 WT (human)): 42%
share of cells with resurgent currents (whole-cell patch clamp, 100 µM β4-peptide in the pipette, 50 nM ATX-II in the bath) (hNav1.7/V948C (human)): 55%
Binder: KKLITFILKKTREK [β4-peptide]
